Molecular target: PERK luminal domain W165A (UniProt Q9NZJ5)
Experiment: sedimentation velocity AUC

Sequence of PERK luminal domain W165A (Q9NZJ5 105-403 W164A/Q166R): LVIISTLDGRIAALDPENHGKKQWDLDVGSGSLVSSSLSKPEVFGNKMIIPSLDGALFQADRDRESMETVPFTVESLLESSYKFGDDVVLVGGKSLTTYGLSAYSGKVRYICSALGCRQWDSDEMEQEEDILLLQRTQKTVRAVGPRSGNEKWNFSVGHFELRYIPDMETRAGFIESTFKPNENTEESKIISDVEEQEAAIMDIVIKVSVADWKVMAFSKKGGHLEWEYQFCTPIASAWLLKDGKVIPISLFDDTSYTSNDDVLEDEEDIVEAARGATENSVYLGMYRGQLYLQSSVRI

other: % (change in tetramer against wild-type) (parent: 0): -23%
other: tetramer (relative to dimer = 1) (parent: 0.73): 0.56
Substance: human PERK luminal domain (residues 105–403) (from UniProt Q9NZJ5) W165A
